Laboratory results from patent publication US20240254254.

B1: TAP1 NBD of SEQ ID NO:87 with a peptide comprising a SpyTag3, TEV protease site and a His tag attached at the C-terminus (protein)
chain: MPPSGLLTPLHLEGLVQFQDVSFAYPNRPDVLVLQGLTFTLRPGEVTALVGPNGSGKSTVAALLQNLYQPTGGQLLLDGKPLPQYEHRYLHRQVAAVGQEPQVFGRSLQENIAYGLTQKPTMEEITAAAVKSGAHSFISGLPQGYDTEVDEAGSQLSGGQRQAVALARALIRKPSVLILDNATSALDAGNQLRVQRLLYESPERYSRSVLLITQHLSLVEQADHILFLEGGAIREGGTHQQLMEKKGSYWAMVQAPADAPE
B2: human TAP1 NBD comprising N676G, S677N, Q680R, E682Q and Q683R substitutions, substitutions of cysteines with serines (SEQ ID NO:10) and a C-terminal His tag (protein)
chain: GLLTPLHLEGLVQFQDVSFAYPNRPDVLVLQGLTFTLRPGEVTALVGPNGSGKSTVAALLQNLYQPTGGQLLLDGKPLPQYEHRYLHRQVAAVGQEPQVFGRSLQENIAYGLTQKPTMEEITAAAVKSGAHSFISGLPQGYDTEVDEAGSQLSGGQRQAVALARALIRKPSVLILDNATSALDAGNQLRVQRLLYESPERYSRSVLLITQHLSLVEQADHILFLEGGAIREGGTHQQLMEKKGSYWAMVQAPADAPE

Tests used:
[1] = size exclusion chromatography (Superdex S200 Increase) in 1 mM ATP buffer
[2] = size exclusion chromatography (Superdex S200 Increase) in 1 mM ADP buffer
[3] = size exclusion chromatography in 1 mM ADP (monomer state)
[4] = size exclusion chromatography in 1 mM ATP (dimer state)

| Protein | elution volume (SEC) in 1 mM ATP [1] | elution volume (SEC) in 1 mM ADP [2] | effective molecular weight (SEC) in 1 mM ADP [3] | effective molecular weight (SEC) in 1 mM ATP [4] |
| --- | --- | --- | --- | --- |
| B1 | The ATP-containing sample eluted at a volume of 15.75 ml | the ADP sample eluted at 16.81 ml | – | – |
| B2 | – | – | in the presence of ADP the protein chromatographs with an effective molecular weight of 37 kDa | in the presence of ATP the protein chromatographs with an effective molecular weight of 57 kDa |
